Laboratory results taken from patent publication US20160264647A1 (US Dept. of Health and Human Services, published 2016).

T1: MERS-CoV spike glycoprotein (S) (MERS-CoV, UniProt K9N5Q8 18-1353)
T1 sequence: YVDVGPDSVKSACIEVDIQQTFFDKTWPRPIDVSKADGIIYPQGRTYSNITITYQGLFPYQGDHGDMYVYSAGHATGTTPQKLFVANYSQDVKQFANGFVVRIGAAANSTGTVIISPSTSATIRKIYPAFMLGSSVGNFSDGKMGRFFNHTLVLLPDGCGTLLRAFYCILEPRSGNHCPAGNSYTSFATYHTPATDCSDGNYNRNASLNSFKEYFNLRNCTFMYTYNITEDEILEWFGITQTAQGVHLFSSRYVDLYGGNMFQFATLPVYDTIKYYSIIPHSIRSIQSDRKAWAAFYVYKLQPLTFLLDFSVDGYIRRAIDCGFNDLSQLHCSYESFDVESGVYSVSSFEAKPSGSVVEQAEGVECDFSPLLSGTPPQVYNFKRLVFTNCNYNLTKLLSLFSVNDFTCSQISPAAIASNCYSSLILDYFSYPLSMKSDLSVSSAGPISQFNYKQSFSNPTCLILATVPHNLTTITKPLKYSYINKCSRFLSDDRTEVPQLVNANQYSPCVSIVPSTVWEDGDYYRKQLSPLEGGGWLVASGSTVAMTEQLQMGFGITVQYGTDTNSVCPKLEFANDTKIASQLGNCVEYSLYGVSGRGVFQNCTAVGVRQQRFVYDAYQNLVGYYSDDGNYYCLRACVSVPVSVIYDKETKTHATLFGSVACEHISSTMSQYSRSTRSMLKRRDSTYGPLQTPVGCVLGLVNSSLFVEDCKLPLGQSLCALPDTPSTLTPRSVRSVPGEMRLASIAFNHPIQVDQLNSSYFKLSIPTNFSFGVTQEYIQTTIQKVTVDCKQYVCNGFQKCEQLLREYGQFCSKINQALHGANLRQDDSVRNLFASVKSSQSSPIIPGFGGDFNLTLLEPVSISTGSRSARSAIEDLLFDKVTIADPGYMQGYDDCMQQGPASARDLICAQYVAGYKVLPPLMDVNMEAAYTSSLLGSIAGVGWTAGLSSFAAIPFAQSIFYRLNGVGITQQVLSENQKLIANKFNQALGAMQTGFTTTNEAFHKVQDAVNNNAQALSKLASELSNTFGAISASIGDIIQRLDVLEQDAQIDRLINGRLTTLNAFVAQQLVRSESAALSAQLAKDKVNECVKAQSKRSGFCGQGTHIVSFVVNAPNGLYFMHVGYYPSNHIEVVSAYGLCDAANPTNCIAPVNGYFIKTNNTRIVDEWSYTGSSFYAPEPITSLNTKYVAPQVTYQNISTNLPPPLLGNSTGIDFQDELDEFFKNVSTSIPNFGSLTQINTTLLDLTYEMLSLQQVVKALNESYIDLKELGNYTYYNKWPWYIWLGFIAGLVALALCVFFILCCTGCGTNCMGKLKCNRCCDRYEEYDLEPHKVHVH

B1: IgG1 m336 (antibody, V domains shown)
VH: QVQLVQSGAEVKKPGSSVKVSCKASGGTFSSYAISWVRQAPGQGLEWMGGIIPIFGTASYAQKFQGRVTITADKSTSTAYMELSSLRSEDTAVYYCARVGYCSSTSCNRGAFDIWGQGTMVTVSS
VL: DIQLTQSPSSLSASVGDRVTITCRASQGIRNDLGWYQQKPGKAPKLLIYAASSLQSGVPSRFSGSGSGTDFTLTISSLQPEDFATYYCQQLNSYPLTFGGGTKVEIKR
B2: IgG1 m337 (antibody, V domains shown)
VH: QVQLQQSGAEVKKPGSSVKVSCKASGGTFSSYTISWVRQAPGQGLEWMGRIIPIFGTANYAQKFQGRVTITADKSTSTAYMELSSLRSEDTAVYYCARDLGPGGDSSGYYYGPGAFDIWGQGTMVTVSS
VL: not shown
B3: IgG1 m338 (antibody, V domains shown)
VH: QVQLQQSGAEVKKRGSSVKVSCKASGGTFSSYTISWVRQAPGQGLEWMGRIIPILGIANYAQKFQGRVTITADKSTSTAYMELSSLRSEDTAVYYCARDLYDSSGYYRNTDAFDIWGQGTMVTVSS
VL: EIVMTQSPVTLSLSPGERATLSCRASQSVSSYLAWYQQKPGQAPRLLIYDASNRATGIPARFSGSGSGTDFTLTISSLEPEDFAVYYCQQYGSSPWTFGQGTKVEIKR

target: T1, MERS-CoV spike glycoprotein (S); experiment: cell-based or functional assay

Row | Binder | MERS-CoV pseudovirus neutralization (inhibition of viral entry) at 0.1 µg/ml
1 | B1 | > 95%
2 | B2 | > 95%
3 | B3 | > 95%
